From patent US6699683B1, “Active site of human gamma glutamy hydrolase” (Health Research Incorporated, priority 1996, dated 2004)
Marks after values point to notes of the source that are not given here.

How the values were obtained:
[1] = tested on: wildtype, C19A, C124A and C290A hGH proteins; settings: 0.5 mM iodoacetate for 60 minutes
Experimental: hGH activity in chromatography fractions was measured with 4-NH2-10-CH3PteGlu5 (Schirk Labs, Jona, Switzerland) as previously described (Rhee et al. 1998). The specific activities and reaction kinetics of hGH were determined using varying concentrations of 4-NH2-10-CH3PteGlu2 as substrate (Schirk Labs). Km and Vmax were determined by the method of Hanes (Price and Stevens 1989) with the best fit line calculated using Excel (Microsoft).

[2] = tested on: human gamma glutamyl hydrolase (hGH); test: hGH activity assay with 4-NH2-10-CH3PteGlu2 as substrate (Km, Vmax, specific activity) of E. coli-expressed purified proteins; format: biochemical; settings: for Specific activity (nmol 4-NH2-10-CH3PteGlu2 hydrolyzed/min/mg protein): 200 μM 4-NH2-10-CH3PteGlu2 for 5 minutes; for Specific activity (nmol 4-NH2-10-CH3PteGlu2 hydrolyzed/min/mg protein) / Km / Vmax (nmol 4-NH2-10-CH3PteGlu2 hydrolyzed/min/μg protein): mean ± SD of 3 experiments; for hGH activity (in words): purified E. coli-expressed proteins; for Km: substrate 4-NH2-10-CH3PteGlu2, variable concentrations; for Vmax (nmol 4-NH2-10-CH3PteGlu2 hydrolyzed/min/μg protein): variable 4-NH2-10-CH3PteGlu2 concentrations
Experimental: Mutant plasmids were used to transform E. colistrain BL21(DE3)pLysS to kanamycin resistance. Cultures (20 ml) were grown for 16 hours at 37° C., 225 rpm in tryptone-phosphate broth (Moore et al. 1993), containing 30 μg/ml kanamycin and 34 μg/ml chloramphenicol. An aliquot (6 ml) of this culture was used to inoculate 500 ml of the same medium. Cultures were incubated at 27° C., 225 rpm until the OD600nm was 0.5-0.6. Isopropyl β-D-thiogalactoside (IPTG) was added to a final concentration of 1 mM and cultures were incubated for a further 3 hours. Cells were harvested by centrifugation and stored at −80° C. Cells from 1 liter of broth were resuspended in 50 ml of 50 mM Tris/HCl pH 7.5 buffer containing 500 mM NaCl and Complete protease inhibitor cocktail (Boehringer Mannheim, Indianapolis, Ind.). The mixture was sonicated and clarified by centrifugation at 20,000 g for 30 minutes at 4° C. A 20-60% ammonium sulfate precipitate was resuspended in 50 mM sodium acetate, pH 5.8, 1 mM octyl-β-D-glucoside (OBG) and 5% glycerol (buffer A). After dialysis at 4° C. against buffer A and clarification by centrifugation at 30,000 g, 4° C. for 120 minutes, the dialysate was applied in two aliquots to a Protein Pak SP colummn (1.0 cm×10 cm, Waters Division of Millipore Corp., Milford, Mass.) equilibrated in buffer A. The protein was eluted (1 ml/min) with a linear gradient in buffer A of 0 to 1M NaCl over 60 minutes. Fractions were assayed for hGH activity or for hGH protein by Western blot. Fractions containing hGH were pooled and frozen at −80° C. Wildtype hGH and the C19A, C110A, and C290A mutants eluted as two peaks whereas the C124A mutant eluted as a single peak coincident with the first peak for the other hGH proteins. […] There was 8-10 times more hGH protein in peak 1 than in peak 2. A statistically significant amount (40-82%) of enzyme activity of proteins purified on the SP column was lost when stored either at 4° C. or at −80° C. Thawed aliquots of peak 1 were incubated for 2 hours at 4° C. with 2 ml of pHMB agarose (0.8 μmole/ml agarose) (Sigma Chemical, St. Louis, Mo.) equilibrated in 50 mM sodium acetate pH 5.8, 20 mM OBG, 500 mM NaCl (buffer B). The matrix was poured into a column (0.75 cm×4.5 cm) and washed with buffer B. hGH protein was eluted with buffer B containing additionally 10 mM dithiothreitol and 50 mM β-mercaptoethanol. EDTA (1 mM final) was added to each fraction to inhibit remaining proteases. Fractions containing hGH were pooled and stored at −80° C.
Km and Vmax activities were measured using variable 4-NH2-10-CH3PteGlu2 substrate concentrations. Specific activities were measured using 200 μM 4-NH2-10-CH3PteGlu2 for 5 minutes.

[3] = tested on: human gamma glutamyl hydrolase (hGH); test: Activity of baculovirus-expressed hGH mutants on methotrexate polyglutamates; format: biochemical; settings: mutants expressed in the baculovirus system
Text: This model for the active site of hGH has been tested by preparing the Cys110Ala, His220Ala, Glu222Ala, His171Ala, and His171Asn mutants of hGH. The mutants were expressed in the baculovirus system used for active hGH to facilitate the rapid expression and purification of the proteins. The mutant proteins were characterized for activity on methotrexate polyglutamates. […] The role of His171 in hGH has been examined by preparing the mutant His171Ala and the more conservative mutation His171Asn.

| Molecule | Reduction of hGH activity by iodoacetate [1] | Specific activity (nmol 4-NH2-10-CH3PteGlu2 hydrolyzed/min/mg protein) [2] | hGH activity (in words) [2] | Km [2] [µM] | Vmax (nmol 4-NH2-10-CH3PteGlu2 hydrolyzed/min/μg protein) [2] | Activity on methotrexate polyglutamates [3] | Activity on methotrexate tetraglutamate [3] |
| --- | --- | --- | --- | --- | --- | --- | --- |
| O=C(O)CI [iodoacetate] | 70-94% | – | – | – | – | – | – |
| Wildtype: mature human gamma glutamyl hydrolase (SEQ ID NO:1) with N-terminal methionine, expressed in E. coli (protein, listed as Homo sapiens, N-terminal methionine) RPHGDTAKKPIIGILMQKCRNKVMKNYGRYYIAASYVKYLESAGARVVPVRLDLTEKDYEILFKSINGILFPGGSVDLRRSDYAKVAKIFYNLSIQSFDDGDYFPVWGTCLGFEELSLLISGECLLTATDTVDVAMPLNFTGGQLHSRMFQNFPTELLLSLAVEPLTANFHKWSLSVKNFTMNEKLKKFFNVLTTNTDGKIEFISTMEGYKYPVYGVQWHPEKAPYEWKNLDGISHAPNAVNPAFYLAEFFVNEARKKNHHFKSESEEEKALIYQFSPIYTGNISSFQQCYIFD | – | 1913 ± 32 nmol 4-NH2-10-CH3PteGlu2 hydrolyzed/min/mg protein | had activity | 55.2 ± 8.4 | 2.7 ± 0.9 nmol 4-NH2-10-CH3PteGlu2 hydro | – | – |
| C124A: hGH variant with cysteine 124 replaced by alanine (protein) RPHGDTAKKPIIGILMQKCRNKVMKNYGRYYIAASYVKYLESAGARVVPVRLDLTEKDYEILFKSINGILFPGGSVDLRRSDYAKVAKIFYNLSIQSFDDGDYFPVWGTCLGFEELSLLISGEALLTATDTVDVAMPLNFTGGQLHSRMFQNFPTELLLSLAVEPLTANFHKWSLSVKNFTMNEKLKKFFNVLTTNTDGKIEFISTMEGYKYPVYGVQWHPEKAPYEWKNLDGISHAPNAVNPAFYLAEFFVNEARKKNHHFKSESEEEKALIYQFSPIYTGNISSFQQCYIFD | – | 725 ± 79^a nmol 4-NH2-10-CH3PteGlu2 hydrolyzed/min/mg protein | had activity | 28.5 ± 3.7 | 1.0 ± 0.1 nmol 4-NH2-10-CH3PteGlu2 hydro | – | – |
| C19A: hGH variant with cysteine 19 replaced by alanine (protein) RPHGDTAKKPIIGILMQKARNKVMKNYGRYYIAASYVKYLESAGARVVPVRLDLTEKDYEILFKSINGILFPGGSVDLRRSDYAKVAKIFYNLSIQSFDDGDYFPVWGTCLGFEELSLLISGECLLTATDTVDVAMPLNFTGGQLHSRMFQNFPTELLLSLAVEPLTANFHKWSLSVKNFTMNEKLKKFFNVLTTNTDGKIEFISTMEGYKYPVYGVQWHPEKAPYEWKNLDGISHAPNAVNPAFYLAEFFVNEARKKNHHFKSESEEEKALIYQFSPIYTGNISSFQQCYIFD | – | 1000 ± 72^a nmol 4-NH2-10-CH3PteGlu2 hydrolyzed/min/mg protein | had activity | 18.1 ± 0.4 | 1.1 ± 0.3 nmol 4-NH2-10-CH3PteGlu2 hydro | – | – |
| H220A: hGH mutant with His 220 changed to Ala, expressed in the baculovirus system (protein) RPHGDTAKKPIIGILMQKCRNKVMKNYGRYYIAASYVKYLESAGARVVPVRLDLTEKDYEILFKSINGILFPGGSVDLRRSDYAKVAKIFYNLSIQSFDDGDYFPVWGTCLGFEELSLLISGECLLTATDTVDVAMPLNFTGGQLHSRMFQNFPTELLLSLAVEPLTANFHKWSLSVKNFTMNEKLKKFFNVLTTNTDGKIEFISTMEGYKYPVYGVQWAPEKAPYEWKNLDGISHAPNAVNPAFYLAEFFVNEARKKNHHFKSESEEEKALIYQFSPIYTGNISSFQQCYIFD | – | – | – | – | – | inactive | – |
| C290A: hGH variant with cysteine 290 replaced by alanine (protein) RPHGDTAKKPIIGILMQKCRNKVMKNYGRYYIAASYVKYLESAGARVVPVRLDLTEKDYEILFKSINGILFPGGSVDLRRSDYAKVAKIFYNLSIQSFDDGDYFPVWGTCLGFEELSLLISGECLLTATDTVDVAMPLNFTGGQLHSRMFQNFPTELLLSLAVEPLTANFHKWSLSVKNFTMNEKLKKFFNVLTTNTDGKIEFISTMEGYKYPVYGVQWHPEKAPYEWKNLDGISHAPNAVNPAFYLAEFFVNEARKKNHHFKSESEEEKALIYQFSPIYTGNISSFQQAYIFD | – | 1406 ± 463 nmol 4-NH2-10-CH3PteGlu2 hydrolyzed/min/mg protein | had activity | 19.5 ± 8.6 | 1.9 ± 0.4 nmol 4-NH2-10-CH3PteGlu2 hydro | – | – |
| Glu222Ala: hGH mutant with Glu 222 changed to Ala, expressed in the baculovirus system (protein) RPHGDTAKKPIIGILMQKCRNKVMKNYGRYYIAASYVKYLESAGARVVPVRLDLTEKDYEILFKSINGILFPGGSVDLRRSDYAKVAKIFYNLSIQSFDDGDYFPVWGTCLGFEELSLLISGECLLTATDTVDVAMPLNFTGGQLHSRMFQNFPTELLLSLAVEPLTANFHKWSLSVKNFTMNEKLKKFFNVLTTNTDGKIEFISTMEGYKYPVYGVQWHPAKAPYEWKNLDGISHAPNAVNPAFYLAEFFVNEARKKNHHFKSESEEEKALIYQFSPIYTGNISSFQQCYIFD | – | – | – | – | – | greatly reduced activity | – |
| His171Asn: hGH mutant with His 171 changed to Asn, expressed in the baculovirus system (protein) RPHGDTAKKPIIGILMQKCRNKVMKNYGRYYIAASYVKYLESAGARVVPVRLDLTEKDYEILFKSINGILFPGGSVDLRRSDYAKVAKIFYNLSIQSFDDGDYFPVWGTCLGFEELSLLISGECLLTATDTVDVAMPLNFTGGQLHSRMFQNFPTELLLSLAVEPLTANFNKWSLSVKNFTMNEKLKKFFNVLTTNTDGKIEFISTMEGYKYPVYGVQWHPEKAPYEWKNLDGISHAPNAVNPAFYLAEFFVNEARKKNHHFKSESEEEKALIYQFSPIYTGNISSFQQCYIFD | – | – | – | – | – | – | inactive |
